In the supplement of paper PMC9112550, “Optimization of the antimicrobial peptide Bac7 by deep mutational scanning” (BMC Biology, 2022):

Test system: Escherichia coli TOP10
Test: shrunken log2 fold change of peptide-encoding DNA abundance (4.5 h post-induction vs induction); higher = less antimicrobial activity (less host growth inhibition)
Details: time post-induction: 4.5 h; library: site-saturation at positions 5, 18, 19, 20
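Note: peptides expressed intracellularly from a pBAD plasmid library in pooled LB shake-flask culture, induced with 0.3% L-arabinose, DNA abundance read by NGS, three biological replicates, DESeq2 with apeglm shrinkage.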

Sequence | shrunken log2 fold change
RRIRFRPPRLPRPRPRPVFPPRP | -0.224
RRIRRRPPRLPRPRPRPDPCPRP | -0.00607
RRIRSRPPRLPRPRPRPMPVPRP | 0.0216
RRIRYRPPRLPRPRPRPDRAPRP | -0.0598
RRIRERPPRLPRPRPRPLNIPRP | -0.662
RRIRLRPPRLPRPRPRPDKHPRP | -0.971
RRIRGRPPRLPRPRPRPVKKPRP | 0.949
RRIRWRPPRLPRPRPRPLCWPRP | 0.513
RRIRYRPPRLPRPRPRPPSLPRP | 0.289
RRIRGRPPRLPRPRPRPARWPRP | 0.998
RRIRYRPPRLPRPRPRPVFWPRP | 0.11
RRIRMRPPRLPRPRPRPYWFPRP | -0.131
RRIRKRPPRLPRPRPRPTGPPRP | 0.588
RRIRTRPPRLPRPRPRPNDVPRP | -0.0532
RRIRNRPPRLPRPRPRPYDMPRP | -0.00776
RRIRDRPPRLPRPRPRPWPCPRP | 0.462
RRIRLRPPRLPRPRPRPYCEPRP | -0.135
RRIRVRPPRLPRPRPRPSAQPRP | 0.0391
RRIRDRPPRLPRPRPRPTSMPRP | 0.104
RRIRWRPPRLPRPRPRPHMIPRP | -0.219
RRIRFRPPRLPRPRPRPSMFPRP | -0.505
RRIRIRPPRLPRPRPRPWQGPRP | -0.125
RRIRERPPRLPRPRPRPRIQPRP | -0.362
RRIRERPPRLPRPRPRPNIQPRP | -0.357
RRIRMRPPRLPRPRPRPFGWPRP | 0.32

Sequence | shrunken log2 fold change
RRIRKRPPRLPRPRPRPAMWPRP | 0.241
RRIRGRPPRLPRPRPRPMLVPRP | 0.418
RRIRARPPRLPRPRPRPCILPRP | -1.06
RRIRQRPPRLPRPRPRPAKHPRP | 0.204
RRIRQRPPRLPRPRPRPMESPRP | -0.0548
RRIRDRPPRLPRPRPRPEPNPRP | 0.746
RRIRWRPPRLPRPRPRPCFTPRP | -0.0397
RRIRERPPRLPRPRPRPWHIPRP | -0.169
RRIRWRPPRLPRPRPRPIGPPRP | -0.0272
RRIRKRPPRLPRPRPRPCSWPRP | 0.123
RRIRERPPRLPRPRPRPVIAPRP | -0.205
RRIRGRPPRLPRPRPRPPTIPRP | 0.459
RRIRNRPPRLPRPRPRPNKNPRP | -0.406
RRIRNRPPRLPRPRPRPAQTPRP | -0.0137
RRIRERPPRLPRPRPRPCERPRP | -0.0138
RRIRSRPPRLPRPRPRPWQVPRP | 0.00514
RRIRNRPPRLPRPRPRPRFKPRP | 0.0387
RRIRKRPPRLPRPRPRPTPLPRP | 0.848
RRIRWRPPRLPRPRPRPQEDPRP | -0.0221
RRIRRRPPRLPRPRPRPLTLPRP | -0.142
RRIRGRPPRLPRPRPRPPMEPRP | -0.0178
RRIRDRPPRLPRPRPRPSAPPRP | 0.0189
RRIRERPPRLPRPRPRPSVQPRP | -0.204
RRIRRRPPRLPRPRPRPMPRPRP | 0.811
RRIRSRPPRLPRPRPRPVPFPRP | -0.237

Sequence | shrunken log2 fold change
RRIRYRPPRLPRPRPRPQSQPRP | -0.133
RRIRLRPPRLPRPRPRPRHIPRP | 1.19
RRIRQRPPRLPRPRPRPYMHPRP | -0.512
RRIRPRPPRLPRPRPRPIACPRP | 0.0852
RRIRIRPPRLPRPRPRPHGMPRP | 0.0429
RRIRMRPPRLPRPRPRPVYRPRP | -0.174
RRIRKRPPRLPRPRPRPYLSPRP | -0.119
RRIRFRPPRLPRPRPRPFCNPRP | -0.196
RRIRVRPPRLPRPRPRPQDSPRP | -0.069
RRIRYRPPRLPRPRPRPDHDPRP | -0.133
RRIRIRPPRLPRPRPRPPSNPRP | -0.613
RRIRFRPPRLPRPRPRPRRNPRP | 0.136
RRIRVRPPRLPRPRPRPYIFPRP | -0.864
RRIRHRPPRLPRPRPRPTFGPRP | 0.0378
RRIRLRPPRLPRPRPRPVLVPRP | -0.161
RRIRNRPPRLPRPRPRPGSAPRP | 0.025
RRIRRRPPRLPRPRPRPYEWPRP | 0.00618
RRIRSRPPRLPRPRPRPFMYPRP | -0.513
RRIRFRPPRLPRPRPRPHASPRP | -0.259
RRIRCRPPRLPRPRPRPKQIPRP | 0.0104
RRIRARPPRLPRPRPRPVDRPRP | 0.193
RRIRTRPPRLPRPRPRPRVPPRP | 0.105
RRIRARPPRLPRPRPRPNEAPRP | 0.269
RRIRYRPPRLPRPRPRPRHVPRP | -0.0478
RRIRFRPPRLPRPRPRPQEAPRP | 0.201
